Test results taken from IntAct's records for PubMed 19966303.

B1: Serine/threonine-protein kinase YPK1 (Saccharomyces cerevisiae), P12688 (parent)
chain: MYSWKSKFKFGKSKEEKEAKHSGFFHSSKKEEQQNNQATAGEHDASITRSSLDRKGTINPSNSSVVPVRVSYDASSSTSTVRDSNGGNSENTNSSQNLDETANIGSTGTPNDATSSSGMMTIKVYNGDDFILPFPITSSEQILNKLLASGVPPPHKEISKEVDALIAQLSRVQIKNQGPADEDLISSESAAKFIPSTIMLPGSSTLNPLLYFTIEFDNTVATIEAEYGTIAKPGFNKISTFDVTRKLPYLKIDVFARIPSILLPSKTWQQEMGLQDEKLQTIFDKINSNQDIHLDSFHLPINLSFDSAASIRLYNHHWITLDNGLGKINISIDYKPSRNKPLSIDDFDLLKVIGKGSFGKVMQVRKKDTQKVYALKAIRKSYIVSKSEVTHTLAERTVLARVDCPFIVPLKFSFQSPEKLYFVLAFINGGELFYHLQKEGRFDLSRARFYTAELLCALDNLHKLDVVYRDLKPENILLDYQGHIALCDFGLCKLNMKDDDKTDTFCGTPEYLAPELLLGLGYTKAVDWWTLGVLLYEMLTGLPPYYDEDVPKMYKKILQEPLVFPDGFDRDAKDLLIGLLSRDPTRRLGYNGADEIRNHPFFSQLSWKRLLMKGYIPPYKPAVSNSMDTSNFDEEFTREKPIDSVVDEYLSESVQKQFGGWTYVGNEQLGSSMVQGRSIR
B2: Phospholipid-transporting ATPase DNF1 (Saccharomyces cerevisiae), P32660 (parent)
chain: MSGTFHGDGHAPMSPFEDTFQFEDNSSNEDTHIAPTHFDDGATSNKYSRPQVSFNDETPKNKREDAEEFTFNDDTEYDNHSFQPTPKLNNGSGTFDDVELDNDSGEPHTNYDGMKRFRMGTKRNKKGNPIMGRSKTLKWARKNIPNPFEDFTKDDIDPGAINRAQELRTVYYNMPLPKDMIDEEGNPIMQYPRNKIRTTKYTPLTFLPKNILFQFHNFANVYFLVLIILGAFQIFGVTNPGLSAVPLVVIVIITAIKDAIEDSRRTVLDLEVNNTKTHILEGVENENVSTDNISLWRRFKKANSRLLFKFIQYCKEHLTEEGKKKRMQRKRHELRVQKTVGTSGPRSSLDSIDSYRVSADYGRPSLDYDNLEQGAGEANIVDRSLPPRTDCKFAKNYWKGVKVGDIVRIHNNDEIPADIILLSTSDTDGACYVETKNLDGETNLKVRQSLKCTNTIRTSKDIARTKFWIESEGPHSNLYTYQGNMKWRNLADGEIRNEPITINNVLLRGCTLRNTKWAMGVVMFTGGDTKIMLNSGITPTKKSRISRELNFSVVINFVLLFILCFVSGIANGVYYDKKGRSRFSYEFGTIAGSAATNGFVSFWVAVILYQSLVPISLYISVEIIKTAQAAFIYGDVLLYNAKLDYPCTPKSWNISDDLGQVEYIFSDKTGTLTQNVMEFKKCTINGVSYGRAYTEALAGLRKRQGIDVETEGRREKAEIAKDRDTMIDELRALSGNSQFYPEEVTFVSKEFVRDLKGASGEVQQRCCEHFMLALALCHSVLVEANPDNPKKLDLKAQSPDEAALVATARDVGFSFVGKTKKGLIIEMQGIQKEFEILNILEFNSSRKRMSCIVKIPGLNPGDEPRALLICKGADSIIYSRLSRQSGSNSEAILEKTALHLEQYATEGLRTLCIAQRELSWSEYEKWNEKYDIAAASLANREDELEVVADSIERELILLGGTAIEDRLQDGVPDCIELLAEAGIKLWVLTGDKVETAINIGFSCNLLNNEMELLVIKTTGDDVKEFGSEPSEIVDALLSKYLKEYFNLTGSEEEIFEAKKDHEFPKGNYAIVIDGDALKLALYGEDIRRKFLLLCKNCRAVLCCRVSPSQKAAVVKLVKDSLDVMTLAIGDGSNDVAMIQSADVGIGIAGEEGRQAVMCSDYAIGQFRYLARLVLVHGRWSYKRLAEMIPEFFYKNMIFALALFWYGIYNDFDGSYLYEYTYMMFYNLAFTSLPVIFLGILDQDVNDTISLVVPQLYRVGILRKEWNQRKFLWYMLDGLYQSIICFFFPYLVYHKNMIVTSNGLGLDHRYFVGVYVTTIAVISCNTYVLLHQYRWDWFSGLFIALSCLVVFAWTGIWSSAIASREFFKAAARIYGAPSFWAVFFVAVLFCLLPRFTYDSFQKFFYPTDVEIVREMWQHGHFDHYPPGYDPTDPNRPKVTKAGQHGEKIIEGIALSDNLGGSNYSRDSVVTEEIPMTFMHGEDGSPSGYQKQETWMTSPKETQDLLQSPQFQQAQTFGRGPSTNVRSSLDRTREQMIATNQLDNRYSVERARTSLDLPGVTNAASLIGTQQNN

Variants of: B1
Conditions: with fpk1_yeast FPK1, P53739
Target sequence in this assay (P53739 whole entry): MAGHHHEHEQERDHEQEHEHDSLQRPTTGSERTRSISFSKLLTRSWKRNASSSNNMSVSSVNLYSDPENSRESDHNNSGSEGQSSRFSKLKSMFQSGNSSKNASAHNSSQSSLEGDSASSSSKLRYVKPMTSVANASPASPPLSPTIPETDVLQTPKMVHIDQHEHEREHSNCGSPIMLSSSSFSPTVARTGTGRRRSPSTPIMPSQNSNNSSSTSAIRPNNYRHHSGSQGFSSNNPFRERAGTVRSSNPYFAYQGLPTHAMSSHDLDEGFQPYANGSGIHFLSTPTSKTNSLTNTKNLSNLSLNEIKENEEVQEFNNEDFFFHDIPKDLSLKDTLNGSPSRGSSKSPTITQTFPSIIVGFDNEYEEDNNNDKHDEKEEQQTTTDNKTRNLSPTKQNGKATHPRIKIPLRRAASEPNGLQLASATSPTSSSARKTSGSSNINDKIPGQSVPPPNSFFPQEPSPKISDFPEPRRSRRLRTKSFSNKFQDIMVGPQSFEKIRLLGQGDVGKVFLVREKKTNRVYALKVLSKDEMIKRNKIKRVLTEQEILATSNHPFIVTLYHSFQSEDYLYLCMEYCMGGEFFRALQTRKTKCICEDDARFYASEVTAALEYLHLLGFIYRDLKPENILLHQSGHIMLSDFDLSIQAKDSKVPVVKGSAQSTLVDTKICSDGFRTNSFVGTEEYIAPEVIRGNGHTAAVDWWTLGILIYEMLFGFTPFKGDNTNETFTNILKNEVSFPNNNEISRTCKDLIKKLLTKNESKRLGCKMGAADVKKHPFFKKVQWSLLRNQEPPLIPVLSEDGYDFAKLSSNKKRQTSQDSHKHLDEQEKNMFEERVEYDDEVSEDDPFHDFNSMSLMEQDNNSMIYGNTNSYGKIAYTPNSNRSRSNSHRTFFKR

effect of a mutation on the interaction	Variant
disrupting interaction	S51A;S71A

Variants of: B2
Conditions: with fpk1_yeast FPK1, P53739
Target sequence in this assay (P53739 whole entry): as above

effect of a mutation on the interaction	Variant
decreasing interaction	S1526A;S1552A
